Molecular target: T1, human lysyl-tRNA synthetase (h-LysRS), wild type, full length (human, UniProt Q15046 1-597)
T1 construct: Human lysyl-tRNA synthetase (LysRS), full length, wild type; printed residue numbers (NTD 1-65, S207, linker 208-220) fit the cytosolic form; Dimer in the cryo-EM reconstructions; No removal of the His tag is described; also called wt LysRS; wt h-LysRS; source: E. coli BL21 (DE3), purified (PEI and ammonium sulfate precipitation, Ni-NTA, hydroxyapatite)
Assay: cryo-EM structure; 10 uM h-LysRS-tRNALys3 (cellular modified, 1:1), 100 uM AIMP2-N36, 2.5 mM L-lysine, 2 mM AMP; complex formed 60 min at 4°C; 0.075% CHAPSO added before freezing
Details: both partners purified

T1 sequence (Q15046 whole entry): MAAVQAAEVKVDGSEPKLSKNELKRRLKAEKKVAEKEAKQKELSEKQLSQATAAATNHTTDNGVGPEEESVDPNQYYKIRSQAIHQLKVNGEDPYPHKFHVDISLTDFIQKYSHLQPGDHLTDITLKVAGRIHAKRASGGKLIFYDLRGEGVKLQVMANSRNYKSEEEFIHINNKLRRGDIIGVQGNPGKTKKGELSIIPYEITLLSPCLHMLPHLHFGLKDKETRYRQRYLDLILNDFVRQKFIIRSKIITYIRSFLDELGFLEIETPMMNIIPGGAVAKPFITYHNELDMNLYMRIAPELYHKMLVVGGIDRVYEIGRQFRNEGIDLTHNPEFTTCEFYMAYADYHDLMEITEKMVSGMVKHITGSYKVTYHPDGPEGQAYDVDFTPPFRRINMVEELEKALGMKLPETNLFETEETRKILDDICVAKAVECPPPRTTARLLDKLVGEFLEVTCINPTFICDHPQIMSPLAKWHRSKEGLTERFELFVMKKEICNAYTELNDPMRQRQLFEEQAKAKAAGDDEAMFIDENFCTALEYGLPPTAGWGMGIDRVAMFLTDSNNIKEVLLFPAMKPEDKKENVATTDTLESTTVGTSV

B1: AIMP2-N36 peptide (LysRS interacting N-terminal region of AIMP2) (peptide)
peptide: MPMYQVKPYHGGGAPLRVELPTCMYRLPNVHGRSYG
notes: also called AIMP2 peptide; p38; source: synthetic peptide, bought: Biosynth
- stoichiometry N: 2 copies per LysRS dimer

Source: PMC11878792, “Structural basis for aminoacylation of cellular modified tRNA^Lys3 by human lysyl-tRNA synthetase” (Nucleic Acids Research, 2025)
